Measurements taken from PMC10767033 (Scientific Reports, 2024).

Molecular target: T1, galectin-3 (Homo sapiens (assumed; ), UniProt P17931, biotin (biotinylated galectin-3))
T1 construct: galectin-3
Test: ELISA; biotinylated galectin-3 (10 µg/mL) captured on NeutrAvidin-coated wells blocked with 3% skim milk; VHH at 800, 400 and 200 nM in solution, 30 min; detected with HRP anti-FLAG antibody; absorbance at 450 nm
Conditions: both partners purified

T1 sequence (P17931 whole entry): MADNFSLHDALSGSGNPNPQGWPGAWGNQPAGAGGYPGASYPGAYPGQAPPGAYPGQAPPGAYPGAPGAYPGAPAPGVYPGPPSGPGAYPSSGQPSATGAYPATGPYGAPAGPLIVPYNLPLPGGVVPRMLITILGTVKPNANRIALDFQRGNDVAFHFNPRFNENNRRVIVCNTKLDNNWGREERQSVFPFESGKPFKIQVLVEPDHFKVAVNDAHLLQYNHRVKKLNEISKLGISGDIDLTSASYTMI

B1: wild-type VHH (3DWT) (VHH)
VHH: QVQLVESGGGSVQAGGSLRLSCTASGGSEYSYSTFSLGWFRQAPGQEREAVAAIASMGGLTYYADSVKGRFTISRDNAKNTVTLQMNNLKPEDTAIYYCAAVRGYFMRLPSSHNFRYWGQGTQVTVSS
notes: framework 1 of the VHH of PDB 3DWT; CDR1 (13 aa) of the wild type; framework 2 of the VHH of PDB 3DWT; CDR2 (10 aa) of the wild type; framework 3 of the VHH of PDB 3DWT; CDR3 (16 aa) of the wild type; framework 4 of the VHH of PDB 3DWT; also called wild-type 3DWT; source: E. coli BL21(DE3), purified (IMAC, SEC)
B1: no binding (tested: 800 nM, 400 nM, and 200 nM of VHHs).
